Changes are numbered by the printed parent chain.
B1: Anti-CD38-UCP01-G1 Fab (Fab, V domains shown)
VH: QVQLVQSGAEVKKPGSSVKVSCKASGGGFSKYFITWVRQAPGQGLEWMGGVIPKIGYTSYAQKFQGRVTITADESTSTAYMELSSLRSEDTAVYYCARGSDDYASYSPLDSWGQGTLVTVSS
VL: not shown
notes: human IgG1 Fab
B2: Anti-CD38-UCP03-H5 Fab (Fab, V domains shown)
VH: QVQLVQSGAEVKKPGSSVKVSCKASGGLFSFYAISWVRQAPGQGLEWMGGIIPFFGEPQYAQKFQGRVTITADESTSTAYMELSSLRSEDTAVYYCARGSYRFDVWGQGTLVTVSA
VL: not shown
notes: human IgG1 Fab
B3: Anti-CD38-UCP03-B3 Fab (Fab, V domains shown)
VH: QVQLVQSGAEVKKPGSSVKVSCKASGGDFTLYSISWVRQAPGQGLEWMGRIIPTGANANYAQKFQGRVTITADESTSTAYMELSSLRSEDTAVYYCARSWPSLGSGWFDIWGQGTLVTVSS
VL: not shown
notes: human IgG1 Fab
B4: Anti-CD38-UCP03-C3 Fab (Fab, V domains shown)
VH: QVQLVQSGAEVKKPGSSVKVSCKASGGKFSNYAISWVRQAPGQGLEWMGRIIPQIGDAAYAQKFQGRVTITADESTSTAYMELSSLRSEDTAVYYCARASFLYYSYYFDYWGQGTLVTVSS
VL: not shown
notes: human IgG1 Fab
B5: Anti-CD38-UCP02-C3 Fab (Fab, V domains shown)
VH: QVQLVQSGAEVKKPGSSVKVSCKASGDYFNNYAINWVRQAPGQGLEWMGRIIPFLDDANYAQKFQGRVTITADESTSTAYMELSSLRSEDTAVYYCARATSPLYSYYFDYWGQGTLVTVSS
VL: not shown
notes: human IgG1 Fab
B6: Anti-CD38-UCP03-C2 Fab (Fab, V domains shown)
VH: B4 VH with K28T, R50G, Q54A, I55F, A59G, A99G, S100R, F101V
VL: not shown
notes: human IgG1 Fab
B7: Anti-CD38-UCP02-D5 Fab (Fab, V domains shown)
VH: QVQLVQSGAEVKKPGSSVKVSCKASGGIFSVHAIHWVRQAPGQGLEWMGEIIPVIGEADYAQKFQGRVTITADESTSTAYMELSSLRSEDTAVYYCAREQYYYALGGGFDYWGQGTLVTVSS
VL: not shown
notes: human IgG1 Fab
B8: Anti-CD38-UCP01-H1 Fab (Fab, V domains shown)
VH: QVQLVQSGAEVKKPGSSVKVSCKASGDFFSGYAINWVRQAPGQGLEWMGRIIPLLGDTYYAQKFQGRVTITADESTSTAYMELSSLRSEDTAVYYCARSAAGWFAYWGQGTLVTVSS
VL: not shown
notes: human IgG1 Fab
B9: Anti-CD38-UCP03-B6 Fab (Fab, V domains shown)
VH: QVQLVQSGAEVKKPGSSVKVSCKASGGHISNSAINWVRQAPGQGLEWMGRVIPVIDDAYYAQKFQGRVTITADESTSTAYMELSSLRSEDTAVYYCARSRGYYGSFYFDIWGQGTLVTVSS
VL: not shown
notes: human IgG1 Fab; also called anti-CD38-B6; anti-CD38-B6 Fab
B10: Anti-CD38-UCP02-H1 Fab (Fab, V domains shown)
VH: QVQLVQSGAEVKKPGSSVKVSCKASGDKFNTYAISWVRQAPGQGLEWMGGITPRYDYAHYAQKFQGRVTITADESTSTAYMELSSLRSEDTAVYYCARSWGFRAGYLDYWGQGTLVTVSS
VL: not shown
notes: human IgG1 Fab
B11: Anti-CD38-UCP03-E3 Fab (Fab, V domains shown)
VH: QVQLVQSGAEVKKPGSSVKVSCKASGGSFSIYAISWVRQAPGQGLEWMGGIIPNSGDTDYAQKFQGRVTITADESTSTAYMELSSLRSEDTAVYYCARGPYDSYGESYFDYWGQGTLVTVSS
VL: not shown
notes: human IgG1 Fab
B12: Anti-CD38-UCP01-E2 Fab (Fab, V domains shown)
VH: QVQLVQSGAEVKKPGSSVKVSCKASGGSFSNYAIGWVRQAPGQGLEWMGRIIPVFGSAHYAQKFQGRVTITADESTSTAYMELSSLRSEDTAVYYCARGLGYYLYSSYYFDIWGQGTLVTVSS
VL: not shown
notes: human IgG1 Fab; also called anti-CD38-E2; anti-CD38-E2 Fab
B13: Anti-CD38-UCP01-B1 Fab (Fab, V domains shown)
VH: QVQLVQSGAEVKKPGSSVKVSCKASGGDFDQYYISWVRQAPGQGLEWMGRIIPTLGDSQYAQKFQGRVTITADESTSTAYMELSSLRSEDTAVYYCARAVIVSPYYYIYVFDVWGQGTLVTVSS
VL: not shown
notes: human IgG1 Fab
B14: Anti-CD38-UCP02-D1 Fab (Fab, V domains shown)
VH: B13 VH
VL: not shown
notes: human IgG1 Fab
B15: Anti-CD38-UCP02-F2 Fab (Fab, V domains shown)
VH: QVQLVQSGAEVKKPGSSVKVSCKASGDVFSLLAIGWVRQAPGQGLEWMGRIIPSLDATHYAQKFQGRVTITADESTSTAYMELSSLRSEDTAVYYCARGRDVLRSYYFDIWGQGTLVTVSS
VL: not shown
notes: human IgG1 Fab
B16: Anti-CD38-UCP01-F1 Fab (Fab, V domains shown)
VH: QVQLVQSGAEVKKPGSSVKVSCKASGGVFSLYTITWVRQAPGQGLEWMGSIIPLLGDPEYAQKFQGRVTITADESTSTAYMELSSLRSEDTAVYYCARYPYPYGSKYFDIWGQGTLVTVSS
VL: not shown
notes: human IgG1 Fab
B17: Anti-CD38-UCP01-C2 Fab (Fab, V domains shown)
VH: QVQLVQSGAEVKKPGSSVKVSCKASGGYLGIYAISWVRQAPGQGLEWMGRIIPILGEADYAQKFQGRVTITADESTSTAYMELSSLRSEDTAVYYCARGGVWWDYWGQGTLVTVSS
VL: not shown
notes: human IgG1 Fab
B18: Anti-CD38-UCP02-F5 Fab (Fab, V domains shown)
VH: QVQLVQSGAEVKKPGSSVKVSCKASGGVFSYYTISWVRQAPGQGLEWMGRIIPSLGATHYAQKFQGRVTITADESTSTAYMELSSLRSEDTAVYYCARSDSFYYAYYMDLWGQGTLVTVSS
VL: not shown
notes: human IgG1 Fab
B19: Anti-CD38-UCP02-B1 Fab (Fab, V domains shown)
VH: QVQLVQSGAEVKKPGSSVKVSCKASGGQFSFYAINWVRQAPGQGLEWMGEIIPDYGVTHYAQKFQGRVTITADESTSTAYMELSSLRSEDTAVYYCARWSYTYGIRYYYKLFDPWGQGTLVTVSS
VL: not shown
notes: human IgG1 Fab
B20: Anti-CD38-UCP02-A7 Fab (Fab, V domains shown)
VH: EVQLLESGGGLVQPGGSLRLSCAASGFTFSFYDMSWVRQAPGKGLEWVSTITLHGGDTYYADSVKGRFTISRDNSKNTLYLQMNSLRAEDTAVYYCARDPSYIYSTSGYFDYWGQGTLVTVSS
VL: not shown
notes: human IgG1 Fab
B21: Anti-CD38-UCP02-F6 Fab (Fab, V domains shown)
VH: EVQLLESGGGLVQPGGSLRLSCAASGFTFSFYDMSWVRQAPGKGLEWVSAVSLYGDETYYADSVKGRFTISRDNSKNTLYLQMNSLRAEDTAVYYCAREPVSYDYYGSYFDYWGQGTLVTVSS
VL: not shown
notes: human IgG1 Fab
B22: Anti-CD38-UCP02-B7 Fab (Fab, V domains shown)
VH: EVQLVESGGGLVKPGGSLRLSCAASGFSFNEAWMTWVRQAPGKGLEWVGRIKSYSDGGYTGYAAPVKGRFTISRDDSKNTLYLQMNSLKTEDTAVYYCARSPGIPYHYFDVWGQGTLVTVSS
VL: not shown
notes: human IgG1 Fab
B23: Anti-CD38-UCP02-E5 Fab (Fab, V domains shown)
VH: QVQLVQSGAEVKKPGSSVKVSCKASGGGFRHYFISWVRQAPGQGLEWMGGIIPAAATPYYAQKFQGRVTITADESTSTAYMELSSLRSEDTAVYYCARGYWHWFDYWGQGTLVTVSS
VL: not shown
notes: human IgG1 Fab

Target: T1, recombinant cynomolgus monkey CD38-ECD-C-his (cynomolgus monkey, UniProt Q5VAN0 45-301)
T1 construct: Extracellular region fused to 6-His; also called cyno CD38-C-His; recombinant cynomolgus monkey CD38 protein
Assay: SPR, His-captured cyno CD38, Fab analyte, 1:1 fit
Experimental: (§1) Surface plasmon resonance (SPR) was used to measure the binding affinities of the Fab fragments for human and cynomolgus monkey CD38. Affinities were measured on a Biacore T200 instrument (Biacore, GE Healthcare) at 25° C. and analyzed with the Biacore T200 Evaluation Software (v3.1).
(§2) The affinities to human and cynomolgus monkey CD38 were assessed by immobilizing CD38 and using Fab fragments as analyte. Biotinylated recombinant human CD38 protein was immobilized to around 160 RU on flow-path 2 of a Series S Sensor Chip SA or to around 100 RU on flow-path 2 of a Series S BiotinCAPture Chip and recombinant cynomolgus monkey CD38-his protein was immobilized to around 50-100 RU on flow-path 2 of a Series S CM5 Sensor Chip previously coated with anti-histidin antibody. Fab fragments were injected in single cycle kinetic at different concentrations ranging from 7.8 to 2000 nM, in HBS-EP+ buffer (Biacore, GE Healthcare, catalog NO: BR100669) at a flow rate of 30 μl/min for 3 min on flow-path 1 and 2 (flow-path 1 being used as reference). Dissociation was monitored for 5 min.

| Kd [nM] | Binder |
| --- | --- |
| 283 | B1 |
| 111 | B2 |
| 170 | B3 |
| 465 | B4 |
| 188 | B5 |
| 628 | B6 |
| 33.5 | B7 |
| 352 | B8 |
| 829 | B9 |
| 2.7 | B10 |
| 195 | B11 |
| 88.9 | B12 |
| 102 | B13 |
| 78 | B14 |
| 14 | B15 |
| 393 | B16 |
| 53.5 | B17 |
| 55.2 | B18 |

Target: T2, recombinant biotinylated human CD38 Avitag, His Tag (Acrobiosystems, CD8-H82E7) (human, UniProt P28907 43-300, biotinylated (Avitag))
T2 construct: Bought protein; also called biotinylated human CD38-avi-his protein; biotinylated recombinant human CD38 protein
Assay: SPR, biotinylated CD38 captured, Fab analyte, 1:1 fit;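 also: biacore T200 at 25 °C, single-cycle kinetics with Fab injected at 7.8–2000 nM for 3 min, dissociation followed 5 min, reference flow path subtracted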
Experimental: as §1, §2

| Kd [nM] | Binder |
| --- | --- |
| 1120 | B1 |
| 142 | B2 |
| 595 | B19 |
| 115 | B3 |
| 117 | B4 |
| 305 | B5 |
| 1390 | B6 |
| 192 | B7 |
| 71.1 | B20 |
| 437 | B8 |
| 225 | B9 |
| 154 | B10 |
| 300 | B11 |
| 110 | B12 |
| 389 | B21 |
| 193 | B13 |
| 133 | B14 |
| 14.2 | B15 |
| 429 | B16 |
| 85.3 | B17 |
| 71.1 | B18 |
| 1710 | B22 |
| 0.03 | B23 |
